The record followed here is the supplement of paper PMC5998384.

For series [1], the system named is HeLa Kyoto. Briefly: solubility change mitosis vs G1/S (difference of NP-40 vs SDS log2 ratios) (log2 ratio difference); higher = more soluble in mitosis.
Series [2] has as its system HeLa Kyoto. Kind of series: thermal stability score vs G1/S (z-score of summed log2 fold changes over temperatures); higher = more thermally stable than in G1/S.
Series [3] relates to HeLa Kyoto. Kind of series: melting temperature (median over replicates), in situ; higher = more thermally stable.
Series [4] concerns HeLa Kyoto. Kind of series: solubility in G1/S (NP-40 vs SDS abundance) (log2 ratio); higher = more soluble. The settings on record: cell cycle stage: G1/S.
Where [5] appears, read: cell cycle stage: early G1 (4.5 h after nocodazole release).
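For melting temperature (median over replicates), in situ in this document: HeLa Kyoto cells synchronized by double thymidine or nocodazole block, proteins quantified by TMT10plex mass spectrometry, three independent biological replicates.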
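For solubility change mitosis vs G1/S (difference of NP-40 vs SDS log2 ratios) in this document: synchronized HeLa Kyoto cells (double thymidine block for G1/S, nocodazole release for mitosis), protein amounts in NP-40 versus SDS lysates quantified by mass spectrometry, three biological replicates.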
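For solubility in G1/S (NP-40 vs SDS abundance) in this document: HeLa Kyoto cells arrested at G1/S by double thymidine block, proteins quantified by TMT10plex mass spectrometry in mild NP-40 versus SDS extracts, three biological replicates.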
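For thermal stability score vs G1/S (z-score of summed log2 fold changes over temperatures) in this document: synchronized HeLa Kyoto cells, proteins quantified by TMT10plex mass spectrometry, three biological replicates, mitosis taken 0.5 h after nocodazole release, G1/S directly after double thymidine block.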

As to “MVLESVARIVKVQLPAYLKRLPVPESITGFARLTVSEWLRLLPFLGVLALLGYLAVRPFLPKKKQQKDSLINLKIQKENPKVVNEINIEDLCLTKAAYCRCWRSKTFPACDGSHNKHNELTGDNVGPLILKKKEV [CISD2]”, the “solubility change mitosis (log2)” value in series [1] amounted to 0.0164. Besides, the thermal stability score in series [2] (setting [5]) is -4.5; in series [2] (cell cycle stage: mitosis), -5.22. In addition, the melting temperature was found to be 54.2 °C in series [3] (cell cycle stage: G1/S) and 54.7 °C in series [3] (cell cycle stage: mitosis). Moreover, in series [4], the “solubility in G1/S (log2)” value worked out at 0.0551.
As to “MVLIKEFRVVLPCSVQEYQVGQLYSVAEASKNETGGGEGIEVLKNEPYEKDGEKGQYTHKIYHLKSKVPAFVRMIAPEGSLVFHEKAWNAYPYCRTIVTNEYMKDDFFIKIETWHKPDLGTLENVHGLDPNTWKTVEIVHIDIADRSQVEPADYKADEDPALFQSVKTKRGPLGPNWKKELANSPDCPQMCAYKLVTIKFKWWGLQSKVENFIQKQEKRIFTNFHRQLFCWIDKWIDLTMEDIRRMEDETQKELETMRKRGSVRGTSAADV [PITPNB]”, in series [1], the “solubility change mitosis (log2)” value is -0.0681. The values for the thermal stability score in series [2] (setting [5]) and in series [2] (cell cycle stage: mitosis) were 2.34 and 2.14, respectively. Also, the melting temperature was found to be 52.9 °C in series [3] (cell cycle stage: G1/S) and 53.4 °C in series [3] (cell cycle stage: mitosis). Also, the “solubility in G1/S (log2)” value in series [4] worked out at 0.199.
As to “MVLLAAAVCTKAGKAIVSRQFVEMTRTRIEGLLAAFPKLMNTGKQHTFVETESVRYVYQPMEKLYMVLITTKNSNILEDLETLRLFSRVIPEYCRALEENEISEHCFDLIFAFDEIVALGYRENVNLAQIRTFTEMDSHEEKVFRAVRETQEREAKAEMRRKAKELQQARRDAERQGKKAPGFGGFGSSAVSGGSTAAMITETIIETDKPKVAPAPARPSGPSKALKLGAKGKEVDNFVDKLKSEGETIMSSSMGKRTSEATKMHAPPINMESVHMKIEEKITLTCGRDGGLQNMELHGMIMLRISDDKYGRIRLHVENEDKKGVQLQTHPNVDKKLFTAESLIGLKNPEKSFPVNSDVGVLKWRLQTTEESFIPLTINCWPSESGNGCDVNIEYELQEDNLELNDVVITIPLPSGVGAPVIGEIDGEYRHDSRRNTLEWCLPVIDAKNKSGSLEFSIAGQPNDFFPVQVSFVSKKNYCNIQVTKVTQVDGNSPVRFSTETTFLVDKYEIL [ARCN1]”, in series [1], the “solubility change mitosis (log2)” value is -0.0987. The thermal stability score was determined as 1.07 in series [2] (setting [5]) and 0.0434 in series [2] (cell cycle stage: mitosis). For the same sequence, the melting temperature in series [3] (cell cycle stage: G1/S) came to 51.7 °C; in series [3] (cell cycle stage: mitosis), 51.8 °C. Further, the “solubility in G1/S (log2)” value in series [4] is -0.104.
Take “MVLLESEQFLTELTRLFQKCRTSGSVYITLKKYDGRTKPIPKKGTVEGFEPADNKCLLRATDGKKKISTVVSSKEVNKFQMAYSNLLRANMDGLKKRDKKNKTKKTKAAAAAAAAAPAAAATAPTTAATTAATAAQ [SRP14]”: the “solubility change mitosis (log2)” value in series [1] was determined as 0.409. Moreover, the thermal stability score in series [2] (setting [5]) was -2.96; in series [2] (cell cycle stage: mitosis) it was -4.66. The melting temperature in series [3] (cell cycle stage: G1/S) worked out at 53.6 °C; in series [3] (cell cycle stage: mitosis), 52.6 °C. For the same sequence, the “solubility in G1/S (log2)” value in series [4] was 0.1.
With “MVLLRVLILLLSWAAGMGGQYGNPLNKYIRHYEGLSYNVDSLHQKHQRAKRAVSHEDQFLRLDFHAHGRHFNLRMKRDTSLFSDEFKVETSNKVLDYDTSHIYTGHIYGEEGSFSHGSVIDGRFEGFIQTRGGTFYVEPAERYIKDRTLPFHSVIYHEDDINYPHKYGPQGGCADHSVFERMRKYQMTGVEEVTQIPQEEHAANGPELLRKKRTTSAEKNTCQLYIQTDHLFFKYYGTREAVIAQISSHVKAIDTIYQTTDFSGIRNISFMVKRIRINTTADEKDPTNPFRFPNIGVEKFLELNSEQNHDDYCLAYVFTDRDFDDGVLGLAWVGAPSGSSGGICEKSKLYSDGKKKSLNTGIITVQNYGSHVPPKVSHITFAHEVGHNFGSPHDSGTECTPGESKNLGQKENGNYIMYARATSGDKLNNNKFSLCSIRNISQVLEKKRNNCFVESGQPICGNGMVEQGEECDCGYSDQCKDECCFDANQPEGRKCKLKPGKQCSPSQGPCCTAQCAFKSKSEKCRDDSDCAREGICNGFTALCPASDPKPNFTDCNRHTQVCINGQCAGSICEKYGLEECTCASSDGKDDKELCHVCCMKKMDPSTCASTGSVQWSRHFSGRTITLQPGSPCNDFRGYCDVFMRCRLVDADGPLARLKKAIFSPELYENIAEWIVAHWWAVLLMGIALIMLMAGFIKICSVHTPSSNPKLPPPKPLPGTLKRRRPPQPIQQPQRQRPRESYQMGHMRR [ADAM10]”, the “solubility change mitosis (log2)” value in series [1] is -0.0492. Also, the thermal stability score in series [2] (setting [5]) worked out at 0.749; in series [2] (cell cycle stage: mitosis), 1.37. The results for the melting temperature in series [3] (cell cycle stage: G1/S) and in series [3] (cell cycle stage: mitosis) were 53.3 °C and 53.9 °C, respectively. Besides, the “solubility in G1/S (log2)” value in series [4] was -0.0721.
As to “MVLLTMIARVADGLPLAASMQEDEQSGRDLQQYQSQAKQLFRKLNEQSPTRCTLEAGAMTFHYIIEQGVCYLVLCEAAFPKKLAFAYLEDLHSEFDEQHGKKVPTVSRPYSFIEFDTFIQKTKKLYIDSRARRNLGSINTELQDVQRIMVANIEEVLQRGEALSALDSKANNLSSLSKKYRQDAKYLNMRSTYAKLAAVAVFFIMLIVYVRFWWL [SEC22B]”, the “solubility change mitosis (log2)” value in series [1] amounted to 0.0289. Moreover, the thermal stability score was 4.24 in series [2] (setting [5]) and 5.81 in series [2] (cell cycle stage: mitosis). In addition, the melting temperature worked out at 51.3 °C in series [3] (cell cycle stage: G1/S) and 52.2 °C in series [3] (cell cycle stage: mitosis). Further, the “solubility in G1/S (log2)” value in series [4] was -0.0184.
